{"source": "patent US20160091500", "molecules": {"B1": {"name": "MMP-7 (enzyme, UniProt P09237 95-267, looked up, species assumed)", "Matrilysin": "YSLFPNSPKWTSKVVTYRIVSYTRDLPHITVDRLVSKALNMWGKEIPLHFRKVVWGTADIMIGFARGAHGDSYPFDGPGNTLAHAFAPGTGLGGDAHFDEDERWTDGSSLGINFLYAATHELGHSLGMGHSSDPNAVMYPTYGNGDPQNFKLSQDDIKGIQKLYGKRSNSRKK"}, "B2": {"name": "Recombinant cathepsin K (enzyme, UniProt P43235 115-329, looked up, species assumed)", "Cathepsin K": "APDSVDYRKKGYVTPVKNQGQCGSCWAFSSVGALEGQLKKKTGKLLNLSPQNLVDCVSENDGCGGGYMTNAFQYVQKNRGIDSEDAYPYVGQEESCMYNPTGKAAKCRGYREIPEGNEKALKRAVARVGPVSVAIDASLTSFQFYSKGVYYDESCNSDNLNHAVLAVGYGIQKGNKHWIIKNSWGENWGNKGYILMARNKNNACGIANLASFPKM"}, "B3": {"name": "ADAMTS4 (enzyme, UniProt O75173 213-837, looked up, species assumed)", "A disintegrin and metalloproteinase with thrombospondin motifs 4": "FASLSRFVETLVVADDKMAAFHGAGLKRYLLTVMAAAAKAFKHPSIRNPVSLVVTRLVILGSGEEGPQVGPSAAQTLRSFCAWQRGLNTPEDSDPDHFDTAILFTRQDLCGVSTCDTLGMADVGTVCDPARSCAIVEDDGLQSAFTAAHELGHVFNMLHDNSKPCISLNGPLSTSRHVMAPVMAHVDPEEPWSPCSARFITDFLDNGYGHCLLDKPEAPLHLPVTFPGKDYDADRQCQLTFGPDSRHCPQLPPPCAALWCSGHLNGHAMCQTKHSPWADGTPCGPAQACMGGRCLHMDQLQDFNIPQAGGWGPWGPWGDCSRTCGGGVQFSSRDCTRPVPRNGGKYCEGRRTRFRSCNTEDCPTGSALTFREEQCAAYNHRTDLFKSFPGPMDWVPRYTGVAPQDQCKLTCQAQALGYYYVLEPRVVDGTPCSPDSSSVCVQGRCIHAGCDRIIGSKKKFDKCMVCGGDGSGCSKQSGSFRKFRYGYNNVVTIPAGATHILVRQQGNPGHRSIYLALKLPDGSYALNGEYTLMPSPTDVVLPGAVSLRYSGATAASETLSGHGPLAQPLTLQVLVAGNPQDTRLRYSFFVPRPTPSTPRPTPQDWLHRRAQILEILRRRPWAGRK"}}, "data": [{"test_system": "T1, intact chondroadherin (CHAD) polypeptide, human", "T1 sequence": "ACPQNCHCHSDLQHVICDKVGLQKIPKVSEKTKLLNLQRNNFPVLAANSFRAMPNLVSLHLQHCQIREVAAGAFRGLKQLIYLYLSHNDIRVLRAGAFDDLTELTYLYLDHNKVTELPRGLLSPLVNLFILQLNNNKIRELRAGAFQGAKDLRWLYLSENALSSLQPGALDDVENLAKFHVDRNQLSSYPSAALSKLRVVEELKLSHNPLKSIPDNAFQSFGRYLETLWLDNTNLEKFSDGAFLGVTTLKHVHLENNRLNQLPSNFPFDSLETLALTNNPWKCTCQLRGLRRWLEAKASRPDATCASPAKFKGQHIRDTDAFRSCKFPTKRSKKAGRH", "values": [{"molecule": "ADAMTS5", "CHAD fragmentation after protease digestion of normal disc tissue (SDS-PAGE, immunoblot)": "digestions performed with ADAMTS4 and ADAMTS5 also did not generate CHAD fragments"}, {"molecule": "MMP-3", "CHAD fragmentation after protease digestion of normal disc tissue (SDS-PAGE, immunoblot)": "Digestion with MMPs 3, 7, 12 and 13, showed no evidence of CHAD fragments retained in the tissue"}, {"molecule": "MMP-12", "CHAD fragmentation after protease digestion of normal disc tissue (SDS-PAGE, immunoblot)": "Digestion with MMPs 3, 7, 12 and 13, showed no evidence of CHAD fragments retained in the tissue"}, {"molecule": "MMP-13", "CHAD fragmentation after protease digestion of normal disc tissue (SDS-PAGE, immunoblot)": "Digestion with MMPs 3, 7, 12 and 13, showed no evidence of CHAD fragments retained in the tissue"}, {"molecule": "Recombinant cathepsin B", "CHAD fragmentation after protease digestion of normal disc tissue (SDS-PAGE, immunoblot)": "Digestions performed with cathepsins B and L showed extensive degradation of CHAD"}, {"molecule": "Recombinant cathepsin L", "CHAD fragmentation after protease digestion of normal disc tissue (SDS-PAGE, immunoblot)": "Digestions performed with cathepsins B and L showed extensive degradation of CHAD"}, {"molecule": "B1", "CHAD fragmentation after protease digestion of normal disc tissue (SDS-PAGE, immunoblot)": "Digestion with MMPs 3, 7, 12 and 13, showed no evidence of CHAD fragments retained in the tissue"}, {"molecule": "B2", "CHAD fragmentation after protease digestion of normal disc tissue (SDS-PAGE, immunoblot)": "cathepsin K generated a CHAD fragment large enough to be retained in the gel and similar in size to that generated in situ"}, {"molecule": "B3", "CHAD fragmentation after protease digestion of normal disc tissue (SDS-PAGE, immunoblot)": "digestions performed with ADAMTS4 and ADAMTS5 also did not generate CHAD fragments"}]}]}
